From the RNAGym collection of RNA variant scans (doi:10.1073/pnas.2313332121)
This sample holds only a part of the variants without activity.

B1: TPR 5TU (parent)
chain: GGAUCUUCUCGAUCUAACAAAAAAGACAAAUCUGCCACAAAGCUUGAGAGCAUCUUCGGAUGCAGAGGCGGCAGCCUUCGGUGGCGCGAUAGCGCCAACGUUCUCAACUAUGACACGCAAAACGCGUGCUCCGUUGAAUGGAGUUUAUCAUG

Variants of: B1
Experiment: polymerase ribozyme fitness, log enrichment relative to wild type (log ratio); higher = more active; in vitro selection for triplet polymerase activity
Method in brief: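 A single round of triplicate in vitro selection, including frozen incubation at −7 °C, was applied to PCR-built, transcribed mutant libraries of each subunit of a heterodimeric triplet polymerase ribozyme. Illumina sequencing of input and output libraries retained genotypes with ≥10 input reads and ≥1 read per output. Fitness is the base-2 logarithm of genotype enrichment divided by wild-type enrichment, from inverse-variance-weighted replicate averages.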

Variant	polymerase ribozyme fitness (log ratio)
GGAUCUUCUCGAUCAAACAAAAAAGACAAAUCUGCCACAAAGCUUGAGAGCAUCAACGGAUGCAGAGGUGGCAGCCUUUGGUGGCACGAUUGCGCCAACGUUCUCCACUAUGACACGCAAGACGUGUGCUCCGUUGAAUGGCGUUUAUCAUG [U15A U55A U56A C69U C79U G86A A91U A106C A121G C125U A142C]	≤ -4.2
GGAUCUUCUCGAUCAAACAAAAUAGACAAAUCUGCCACCAAGCUUGUGAGCAUCUUCGGAUGCAGAGGCGGCAGCCUUCGGUGGCGCGAUAGCGCGAACGUUCUCAACUAUGACACGCAAAACGCGUGCUCCGUUGAAUGUAGUUUAUCAUG [U15A A23U A39C A47U C96G G141U]	≤ -4.2
GGAUCUUCUCGAUCAAACAAAAAAGACAAAUCUGCCACAAAGCUUGAGAGCAUCUUCGGAUGCAGAGGCGGCAGCUUUCGGUGGCGCGAUAGCGCCAAGGUUCUGAACUAUGACACGCAAAACGCGUGCUCCGUUGAAUGGAGUUUAUCAUG [U15A C76U C99G C105G]	≤ -4.2
GGAUCUUCUCGAUCAAACAAAAAAGACAAAUCUGCCACAAAGCUUGAGAGCAUCUACGGAUGCAGAGGCAGCAGCCUUCGGUGGCGCGAUAGCGCCAACGUUCUCAACUAUGACACGCAAAACGCGUGCUCCGUUGAAUGGAGUUUAUCAUG [U15A U56A G70A]	-4.2
GGAUCUUCUCGAUCAAACAAAAAAGACAAAUCUGCCACAAAGCUUGAGAGCAUCUUCGGAUGCAGAGGCGGCAGCCUUCGGUGGCGCGAUAGCGCCAACGUUCUCAACUACUACACGCAAAACGCGUGCUCCGUUGAAUGGAGUUUAUCAUG [U15A U111C G112U]	-3.91
GGAUCUUCUCGAUCCAACAAACAAGACAAAUCUGCCACAAAGCUUGAGAGCAUCUUCGGAUGCAGAGGCGGCAGCCUUCGGUGGCGCGAUAGCGCCAACGUUCUCAACUAUGACACGAAAAACGCGUGCUCCGUUGAAUGGAGAUUAUCAUG [U15C A22C C118A U144A]	-0.0778
GGAUCUUCUCGAUCAAACAAAAAAGACAAAUCUGCCACAAAGCUUGAGAGCAUCUUCGGAUGCAGAGGCGGCAGCCUUCGGUGGCGCGAUAGCGCCAACGUUCUCAACUAUGACACGCAAAACGCGUGCUCCGUUGAAUGGCGUUUUUCAUG [U15A A142C A147U]	-1.65
GGAUCUUCUCGAUCAAACAAAAAAGACAAAUCUGCCACAAAGCUUGAGAGCAUCUUCGGAUGCAGAGGCGGCAGCCUUCGGUGACGCGAUAGAGCCAACGUUCUCAACUAUGACACGCAAAACGCGUGCUCCGGUGAAUGGAGUUUAUCAUG [U15A G84A C93A U134G]	-4.09
GGAUCUUCUCGAUCAAACAAAAAAGACAAAUCUGCCACAAAGCUUGAGAGCAUCUUCGGAUGCAGAGGCGGCUGCGUUCGGUGGCGCGAUAGCGCCAACGUUCUCAACUAUGACACGAAAAACGCGUGCUCCGUUGACUGCAGUUUAUCAUG [U15A A73U C76G C118A A138C G141C]	≤ -4.2
GGAUCUUCUCGAUCAAACAAAAAAGGCAAAUCUGCCACAAAGCUUGAGAGCAUCUUCGGAUGCAGAGGCGGCAGCCGUCGGUGGCGCGAUAGCGACAACGUUCUCAACUAUGACACGCAAAACGCGUGCUCCGUUGAAUGGAGUUUAUCAUG [U15A A26G U77G C95A]	≤ -4.2
GGAUCUUCUCGAUCAAACAAAAAAGACAAAUCUGCCACAGAGCUUGAGAGCAUCAUCGGUUGCAGAGGCGGCAGCCUUCGGUGGCGCGAUAGCGCCAACGUUCUCAACUAUGAAACGCAAAACGCGUGCUCCGUUGAAUGGAGUUUAUCAUG [U15A A40G U55A A60U C114A]	≤ -4.2
GGAUCUUCUCGAUCAAACAAAAAAGACAAGUCUGCCACAAAGCUUGAGAGCAUCUUCGGAUGCAGAGGCGGCAGCCUGCGGUGGCGGGAUAGCGCCAACGUUCUCAACUAUGACACGCAAAACGCGUGCUCCGUUGAAUGGAGUUUAUCAUG [U15A A30G U78G C87G]	≤ -4.2
GGAUCUUCUCGAUCAAACAAAAAAGACUAAUCUACCACAAAGCUUGUGAGCAUCUUCGGAUGCAGAGGCGGCAGCCUUCGGUGGCGCGAUAGCGCUAACGUUCUCAACUAUGACACACAAAACGCGUGCUCCGUUGAAUGGAGUUUAUCAUG [U15A A28U G34A A47U C96U G117A]	≤ -4.2
GGAUCUUCUCGAUCAAACAAAAAAGACAAAUCUGCCACAAAGCUUGAGCGCAACUUCGGAUGCAGAGGCGGCAGCCUUCGGUGGCUCGAUAGCGCCAACGUUCUCAACUAUGACACGCAAAACGCGUGCUCCGUUGAAUGGAGUUUAUCAUG [U15A A49C U53A G86U]	≤ -4.2
GGAUCUUCUCGAUCAAACAAAAAAGACAAAUCUGCCACAAAGCUUGAGAGCAUCAUCGGAUGCAGAGGCGGCAGCCUUCGGUGGCGCGAUAGCGCCAAGGUUCUCAACUAUGACACGCAAAACGCGUGCUCCGUUGAAUGGAGUUUAUCAUG [U15A U55A C99G]	-1.2
GGAUCUUCUCGAUCAAACAAAAAAGACAAAUCUGCCACAAAGCUUGAGAGCAUCUUCGGAUGCAGAGGCGGCAGCCUUCGGUGGCGCGAUGGCGCCAACCUUCUCAACUAUGACACGCAAAACGCGUGCUCCGUUGAAUGGAGUUUAUCAUG [U15A A91G G100C]	≤ -4.2
GGAUCUUCUCGAUCAAACAAAAAGGACAAAUCUGCCACAAAGCUUGAGAGCAUCUUCGGAUGCAGAGGCGGCAGCCUUCGGUGGCGCGAUAGCGCCAGAGUUCUCAACUAUGACACGCAAAACGCGUGCUCCGUUGAAUGGAGUUUAUCAUG [U15A A24G A98G C99A]	≤ -4.2
GGAUCUUCUCGAUCAAACAAAAAAGACAAAUCUGCCACAAAGCUUGAGAGCAUCUUCGGAUGCAGAGGCGGCAGCCUUCGGUGUCGCGAUAGCGUCAACGUUCUCAACUAUGACACGCAAAACGCGUGCUCCGUUGAAUGGACUUUAUCAUG [U15A G84U C95U G143C]	-4.14
GGAUCUUCUCGAUCAAACAAACAAGACAAAUCUGCCACAAAGCUUGAGAGCAUCUUCGGAUGCAGAGGCGGAAGCCUUCGGUGGCGGUAUAGCGCCAACGUUCUCAACUAUGACACGCAAAACGCGUGCUCCCUUGAAUGGAGUUUAUCAUG [U15A A22C C72A C87G G88U G133C]	≤ -4.2
